Results on six molecules are retold here after patent US20120058118A1 (Boehringer Ingelheim, published 2012).

Test [1] concerns the target T1, aggregated A-beta(1-40) peptide (BAA) (human).
T1 construct: also called A-beta peptide aggregates
As to the kind of experiment: BAA ELISA.

The target in test [2] is T2, human A-beta(1-40) peptide, monomeric (BAM) (human, biotin at the C-terminus in capture ELISA, SPR and TR-FRET; not biotinylated where coated directly (Example 7)).
T2 construct: synthetic peptide (Anaspec), TFA/HFIP treated to give monomer; also called monomeric A-beta
As to the kind of experiment: SPR on captured biotinylated A-beta(1-40).

The target in test [3] is T2, human A-beta(1-40) peptide, monomeric …. As to the kind of experiment: BAM ELISA. Background: ELISA stands for enzyme-linked immunosorbent assay.
Test [4] has the same target. As to the kind of experiment: TR-FRET competition, labelled ABII60A10.
Test [5] shares this target. As to the kind of experiment: BAM ELISA. The source holds these as a separate data set.
For test [6], the target named is T1, aggregated A-beta(1-40) peptide (BAA). As to the kind of experiment: BAA ELISA. This is another data set of the same source.
Test [7] deals with T2, human A-beta(1-40) peptide, monomeric …. As to the kind of experiment: cell-based or functional assay.
Test [8] has the same target. As to the kind of experiment: 60A10 TR-FRET assay (labelled ABII60A10).
Test [9] has the same target. As to the kind of experiment: TR-FRET competition.
The target is the same in test [10]. As to the kind of experiment: SPR, captured C-terminally biotinylated A-beta(1-40). (SPR reads the build-up and loss of mass on a sensor chip optically.)
For test [11] the target is unchanged. As to the kind of experiment: ABII050 TR-FRET competition assay.
Test [12] has the same target. As to the kind of experiment: 42D4 TR-FRET assay (labelled ABII42D4). Background: In TR-FRET formats the signal depends on donor and acceptor labels being close together.
Test [13] shares this target. As to the kind of experiment: TR-FRET competition; extrapolated curve.
For test [14] the target is unchanged. As to the kind of experiment: TR-FRET competition, labelled ABII60A10; extrapolated curve.
The target in test [15] is T3, His.Xa.Abeta1-28.GS.p38 fusion protein.
T3 construct: His-tag, factor Xa site, A-beta(1-28), GS linker, murine p38 alpha; the SEC experiment names it only A-beta(1-28)-p38 fusion protein; also called A-beta(1-28)-p38 fusion protein; A-beta-p38 fusion protein
T3 chain: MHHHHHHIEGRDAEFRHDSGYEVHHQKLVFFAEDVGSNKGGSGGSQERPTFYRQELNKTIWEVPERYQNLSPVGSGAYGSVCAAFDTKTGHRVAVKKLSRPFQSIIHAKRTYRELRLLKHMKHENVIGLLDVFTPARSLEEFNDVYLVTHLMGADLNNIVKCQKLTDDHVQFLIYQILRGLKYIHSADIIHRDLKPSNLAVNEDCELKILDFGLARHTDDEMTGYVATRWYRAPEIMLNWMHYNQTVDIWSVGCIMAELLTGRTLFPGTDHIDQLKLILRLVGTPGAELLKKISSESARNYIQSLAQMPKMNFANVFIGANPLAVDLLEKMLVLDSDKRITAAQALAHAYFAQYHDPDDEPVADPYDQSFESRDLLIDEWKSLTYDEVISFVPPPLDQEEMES
As to the kind of experiment: size exclusion chromatography, Experion quantification (0.87 µM and 0.86 µM).
Protocol: Determination of the binding mode using size exclusion chromatography: Size exclusion chromatography (SEC) separates molecules according to differences in size as they pass through a gel filtration medium packed in a column. The binding mode of biparatopic VHH constructs to their target can be identified by analysing the protein complex after incubating a 1:2 molar ratio of the respective VHH construct and the target protein. Therefore the mixture will be separated by SEC and the contents of the resulting peaks is analyzed by protein gel electrophoresis. […] The gel filtration produced two peaks which are further analyzed by SDS-PAGE using the automated electrophoresis station Experion (Bio-Rad, USA) and the appropriate chip (Pro260 Chip, Bio-Rad, USA).

For test [16], the target named is T2, human A-beta(1-40) peptide, monomeric …. As to the kind of experiment: ABII42D4 TR-FRET assay.
For test [17], the target named is T4, pGlu-A-beta(1-28), C-terminally biotinylated (human, pyroglutamate formed from the glutamate at position 3 (N-terminus); biotin at the C-terminus).
T4 construct: printed as pGlu-A-beta(1-28), while the text says that the first two N-terminal residues are missing; range 3-28 is my reading; also called pyroglutamyl-Abeta
As to the kind of experiment: SPR on captured C-terminally biotinylated pGlu-A-beta(1-28), 1:1 model.
Description: Association and dissociation curves can be fitted using a 1:1 interaction model and an accurate KD value can be determined.

Test [18] has as its target T2, human A-beta(1-40) peptide, monomeric …. As to the kind of experiment: ABII002 TR-FRET competition assay.
In test [19] the target is T5, A-beta(1-28) peptide (human).
T5 construct: Anaspec peptide, solution antigen in KinExA
As to the kind of experiment: KinExA, A-beta(1-28) in solution; PEGylated ABII322.
Protocol: The KinExA experiments are conducted with a KinExA 3000 and the KinExA Pro software (Sapidyne Instruments Inc., USA) at room temperature (ca. 21° C.). PBS with 0.02% NaN₃ is used as running buffer. For all experiments, antigen is serially diluted into PBS with 0.1% BSA and 0.02% NaN₃ having a constant VHH concentration. The mixtures of antigen and VHH are incubated for 24 h at room temperature prior to measurement. The flow rate of the samples and the labeling antibody for all experiments is 0.25 ml/min.
This antibody is used at a volume of 500 μl and a concentration of 0.5 μg/ml in PBS with 0.1% BSA and 0.02% NaN₃.
The equilibrium titration data are fit to a 1:1 binding model using KinExA Pro software Version 1.0.3 (Sapidyne Instruments Inc., USA). […] The sample volume is 5 ml each. […] The sample volume is 11 ml each.

Test [20] concerns the target T6, human A-beta peptide (residues 1-24) (human).
T6 construct: used for co-crystallisation; also called A-beta(1-24)
As to the kind of experiment: crystal structure.
Protocol: The complex is concentrated by diafiltration to a concentration of 4 mg/ml. Crystallization trials are set up as sitting drop vapour diffusion experiments by mixing 200 nl of protein with 200 nl of reservoir solution against a reservoir volume of 100 μl. […] Data are collected at the beamline 6SA of the swiss light source at the Paul-Scherrer Institute in Villigen, Switzerland.

Test [21] concerns the target T2, human A-beta(1-40) peptide, monomeric …. As to the kind of experiment: TR-FRET competition; labelled competitor not given.
For test [22], the target named is T7, mouse A-beta(1-40) peptide (mouse).
T7 construct: Bachem peptide coated directly; also called rodent A-beta(1-40)
T7 peptide: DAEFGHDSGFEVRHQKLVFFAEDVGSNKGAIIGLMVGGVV
As to the kind of experiment: ELISA EC50.

Test [23] addresses T2, human A-beta(1-40) peptide, monomeric …. As to the kind of experiment: TR-FRET competition, mean IC50.
Test [24] has as its target T7, mouse A-beta(1-40) peptide. As to the kind of experiment: ELISA, peptide coated at 2 µg/ml, anti-myc detection.
Test [25] deals with T2, human A-beta(1-40) peptide, monomeric …. The description is as above.
Test [26] shares this target. As to the kind of experiment: ELISA, format not stated.
For test [27], the target named is T8, soluble APP-alpha (UniProt P05067-4 18-612, limits assumed, biotinylated where used as labelled partner).
T8 construct: bought; also called sAPPalpha
T8 sequence (P05067 other isoform, or with tags, fused parts or gaps limits assumed): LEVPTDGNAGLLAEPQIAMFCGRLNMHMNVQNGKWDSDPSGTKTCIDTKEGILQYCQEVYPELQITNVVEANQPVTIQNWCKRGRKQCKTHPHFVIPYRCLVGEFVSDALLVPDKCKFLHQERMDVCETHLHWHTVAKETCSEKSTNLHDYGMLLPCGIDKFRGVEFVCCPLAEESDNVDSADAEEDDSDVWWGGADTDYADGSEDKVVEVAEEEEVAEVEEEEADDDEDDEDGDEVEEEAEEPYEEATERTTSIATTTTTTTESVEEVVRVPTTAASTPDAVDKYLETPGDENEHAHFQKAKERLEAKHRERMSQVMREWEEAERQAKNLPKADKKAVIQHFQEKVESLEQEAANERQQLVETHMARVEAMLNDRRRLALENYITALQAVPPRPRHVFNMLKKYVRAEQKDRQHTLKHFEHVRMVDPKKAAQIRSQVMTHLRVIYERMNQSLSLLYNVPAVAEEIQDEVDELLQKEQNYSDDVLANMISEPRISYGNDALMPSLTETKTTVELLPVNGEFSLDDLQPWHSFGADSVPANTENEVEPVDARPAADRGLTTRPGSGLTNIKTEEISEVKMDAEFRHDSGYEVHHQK
As to the kind of experiment: TR-FRET: competition with labelled ABII320 for biotinylated sAPPalpha; non-labeled ABII035 as competitor; biotinylated sAPPalpha.
Protocol: Two independent experiments are performed applying a dilution series of the competitor compounds.

Like-named read-outs stand apart in the source and are kept apart here.

B1: Fab fragment of monoclonal antibody m266 (Fab, V domains shown)
VH: EVKLVESGGGLVQPGGSLKLSCAVSGFTFSRYSMSWVRQTPEKRLELVAQINSVGNSTYYPDTVKGRFTISRDNAEYTLSLQMSGLRSDDTATYYCASGDYWGQGTTLTVSS
VL: DVVMTQTPLSLPVSLGDQASISCRSSQSLIYSDGNAYLHWFLQKPGQSPKLLIYKVSNRFSGVPDRFSGSGSGTDFTLKISRVETEDLGVYFCSQSTHVPWTFGGGTKLEIK
notes: also called Fab266; m266Fab
As usually defined, the EC50 is the concentration that produces a half-maximal response. Low readings indicate a more potent agent, high ones a less potent agent. For orientation: koff means the first-order rate constant of dissociation. In general, IC50 refers to the point on the concentration scale where inhibition reaches its midpoint. What is called Kd is the equilibrium constant for the complex coming apart. With B1, the 50% effective concentration (EC50) in test [1], in [3], in test [5] and in [6] was 1.8 nM throughout. The molecule also registered a koff in [2] of 4e-05 s⁻¹. For the same molecule, the IC50 was 0.52 nM in [4]; 2.3 nM in [8]; 0.52 nM in [9]; 0.52 nM in test [11]; more than 1000 nM in test [12]. In addition, the “Aggregation inhibition (% inhibition at 26 µM)” value in [7] is 82%. In test [10], this molecule registered a Kd of 0.3 nM.

B2: reference VHH 2D2 (VHH)
VHH: AVQLVDSGGGLVQAGGSLRLSCAVSGGTFSSIGMGWFRQAPGKEREFVGAISRSGDSTYYADSVKGRFTISRDGAKNTVYLQMNSLKDEDTAVYYCAGRPAGTAINIRRSYNYWGQGTQVTVSS
notes: from WO2006/40153, made and purified like the other VHHs
As for B2, the IC50 in test [13] and in test [14] was 404 nM throughout. In addition, the half-maximal effective concentration (EC50) was determined as 4.7 nM in test [1], 15.8 nM in test [3], 15.8 nM in [5] and 4.7 nM in test [6]. Further, the “Aggregation inhibition (% inhibition at 26 µM)” value in test [7] was determined as 69%.

B3: 60A10-27GS-42D4-Alb (designed binder)
chain: EVQLVESGGGLVQAGGSLRLSCAASGRTFNNYNMGWFRQAPGKEREFVAAVSRSGVSTYYADSVKGRFTISRDNAKNAVYLQMNSLKPEDTAIYYCGAAYRGTAINVRRSYDSWGQGTQVTVSSGGGSGGGGSGGGGSGGGGSGGGGSGGGEVQLVESGGGLVLAGGSLRLSCVHSGPTFSTDTMGWFRQAPGKEREFVAAVTWNSGRTNYADSVKGRFTVSRDNTRNAAYLQMSGLKDEDTAVYYCTAHRLVVGGTSVGDWRYWGQGTQVTVSS
notes: calculated molecular weight 95 kDa; also called biparatopic VHH fused to human serum albumin; not shown: human serum albumin, fused C-terminally
For B3, in test [15], the “ratio of A-beta(1-28)-p38 to 60A10-27GS-42D4-Alb in the complex” value is approximately 1.

B4: ABII42D4-9GS-ABII42D4 (designed binder)
chain: EVQLVESGGGLVLAGGSLRLSCVHSGPTFSTDTMGWFRQAPGKEREFVAAVTWNSGRTNYADSVKGRFTVSRDNTRNAAYLQMSGLKDEDTAVYYCTAHRLVVGGTSVGDWRYWGQGTQVTVSSGGGGSGGGGEVQLVESGGGLVLAGGSLRLSCVHSGPTFSTDTMGWFRQAPGKEREFVAAVTWNSGRTNYADSVKGRFTVSRDNTRNAAYLQMSGLKDEDTAVYYCTAHRLVVGGTSVGDWRYWGQGTQVTVSS
notes: VHH dimer with two identical domains; also called bivalent ABII42D4
Turning to B4, the IC50 in [8] was more than 1000 nM; in [12], 16 nM. Moreover, the “fold improved IC50 against monovalent ABII42D4” value in test [16] turned out to be 3.2 fold.

B5: ABII322-PEG40 (designed binder)
chain: VQLLESGGGLVQPGGSLRLSCAASGRTFNNYNMGWFRQAPGKGREFVAAVSRSGVSTYYADSVKGRFTISRDNSKNTVYLQMNSLRPEDTAVYYCAAAYRGTAINVRRSYSSWGQGTLVTVSSGGGSGGGGSGGGGCGGGGSGGGGSGGGEVQLLESGGGLVQPGGSLRLSCVHSGPTFRTDTMGWFRQAPGKGREFVAAVTWNSGRINYADSVKGRFTISRDNSKNTAYLQMNSLRPEDTAVYYCAAHRFVVGGNRVEDWRYWGQGTLVTVSS
modifications: PEG40 on the Cys at position 14 of the 27GS linker
notes: 059-27GSC-035; also called PEGylated ABII322 VHH construct; biparatopic PEGylated VHH ABII322
As to B5, the dissociation constant (Kd) in [17] amounted to 1 nM; in [19], 0.0006 nM. Besides, the results for the IC50 in test [18] and in test [11] were 0.14 nM and 0.17 nM, respectively.

B6: ABII035 (VHH)
VHH: EVQLLESGGGLVQPGGSLRLSCVHSGPTFRTDTMGWFRQAPGKGREFVAAVTWNSGRINYADSVKGRFTISRDNSKNTAYLQMNSLRPEDTAVYYCAAHRFVVGGNRVEDWRYWGQGTLVTVSS
notes: humanized variant of ABII002
Consider B6, for which the binding result in test [20] was “binds”. Moreover, the IC50 worked out at 4 nM in test [21], 3.5 nM in test [18], 4 nM in [23] and 25.6 nM in test [27]. Also, the “fold difference mouse against human A-beta” value in test [22] worked out at 2.2 fold. The concentration for a half-maximal effect (EC50) in test [24] amounted to 5.7 nM; in test [25], 2.5 nM. Moreover, the “fold difference of EC50 against the 2D2 and 2G6 VHHs” value in test [26] was more than 50 fold. Also, the “Aggregation inhibition (% inhibition at 26 µM)” value in [7] worked out at 54%.
